Source: patent US20150218250A1

What was measured:
[1] = biological target: antibody captured by the human Fab capture kit; assay: SPR (BIAcore), antibody captured via human Fab capture kit, 50 nM receptor injected as analyte
[2] = biological target: -; assay: SPR; monomeric, middle panel
[3] = biological target: -; assay: SPR; monomeric, top panel
[4] = biological target: antibody captured by the human Fab capture kit; assay: SPR (BIAcore), antibody captured via human Fab capture kit, 50 nM receptor fusion injected as analyte

With “FcgammaRIIIaV158 (HisAvi-tag comprising functional variant) (receptor)” the response units [1] was 40 RU.
“monomeric IL18R-Fc fusion polypeptide (middle)” showed a Kd [2] of 0.801 nM.
Work on “monomeric IL18R-Fc fusion polypeptide (top)” yielded a Kd [3] of 0.921 nM.
“FcgammaRIIIaV158-Avi-IgA Protease-Fc LALA P329G fusion polypeptide (Fc fusion)” was tested, and the response units [4] was > 100 RU.
